{"source": "the RNAGym collection of RNA variant scans (doi:10.1073/pnas.2313332121)", "parents": {"B1": {"name": "TPR t1 (parent)", "chain": "GACCAAUCUGCCCUCAGAGCUCGAGAACAUCUUCGGAUGCAGAGGAGGCAGGCUUCGGUGGCGCGAUAGCGCCAACGUCCUCAACCUCCAAUGCAUCCCACCACAUGAUGAUGCCUGAAGAGCCUUGGUUUUUUG"}}, "data": [{"variants_of": "B1", "assay": "polymerase ribozyme fitness, log enrichment relative to wild type (log ratio); higher = more active; in vitro selection for triplet polymerase activity", "in_short": "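PCR was used to build mutant libraries for each subunit of a heterodimeric triplet polymerase ribozyme, which were then transcribed. A single in vitro selection round, in triplicate, used a frozen incubation at −7 °C and recovered extended constructs by gel excision, streptavidin beads and RT-PCR. Fitness is the logarithm of genotype enrichment relative to wild-type enrichment, averaged over replicates with inverse-variance weights. The logarithm is base 2, and after Illumina sequencing only genotypes with ≥10 input reads and ≥1 read per output were kept.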", "values": [{"variant": "A5U G113C U125G U132A", "polymerase ribozyme fitness (log ratio)": -1.99}, {"variant": "A6U C28G G45U C56G C64A G120C", "polymerase ribozyme fitness (log ratio)": -7.29}, {"variant": "A6G C13G A111C U112A", "polymerase ribozyme fitness (log ratio)": -1.87}, {"variant": "A6G G117A C124U", "polymerase ribozyme fitness (log ratio)": -0.162}, {"variant": "A5U G39U G45U C82A C123A", "polymerase ribozyme fitness (log ratio)": -2.8}, {"variant": "A5U G10A G17C", "polymerase ribozyme fitness (log ratio)": -4.03}, {"variant": "A6U C13A C40U C62A A95U", "polymerase ribozyme fitness (log ratio)": -3.6}, {"variant": "A6U C62A A105C", "polymerase ribozyme fitness (log ratio)": -4}, {"variant": "A6G G45C G63C U81C", "polymerase ribozyme fitness (log ratio)": -1.8}, {"variant": "A6G C11G C70G A118U", "polymerase ribozyme fitness (log ratio)": -1.53}, {"variant": "A5U U129A", "polymerase ribozyme fitness (log ratio)": -1.34}, {"variant": "A5U G25U C53U G69C C94U", "polymerase ribozyme fitness (log ratio)": -7.17}, {"variant": "A6U A18U", "polymerase ribozyme fitness (log ratio)": -2.27}, {"variant": "A5U G51U G77U", "polymerase ribozyme fitness (log ratio)": -4.52}, {"variant": "A6U G10U C53U G122C C123A U125A", "polymerase ribozyme fitness (log ratio)": -0.333}, {"variant": "A6G U87G A121C", "polymerase ribozyme fitness (log ratio)": 1.92}, {"variant": "A6C C72G A108G C115U", "polymerase ribozyme fitness (log ratio)": -4.82}, {"variant": "A6U A90U C98G C102U A108U C123G", "polymerase ribozyme fitness (log ratio)": -6.7}, {"variant": "A5G G44A G45U G63U C79U C124A", "polymerase ribozyme fitness (log ratio)": -1.7}, {"variant": "A6G C98U U125G", "polymerase ribozyme fitness (log ratio)": -3.71}, {"variant": "U7A A29U C72U U106A", "polymerase ribozyme fitness (log ratio)": -1.06}, {"variant": "A5G G44C C82A", "polymerase ribozyme fitness (log ratio)": -2.23}, {"variant": "A6U G19U", "polymerase ribozyme fitness (log ratio)": -2.29}, {"variant": "A6U C12U G48A C56A G65U A95U C97G C101A U112G C114U", "polymerase ribozyme fitness (log ratio)": -7.26}, {"variant": "A6U U30C G60A G122A", "polymerase ribozyme fitness (log ratio)": -5.6}, {"variant": "A6G G69A", "polymerase ribozyme fitness (log ratio)": -2.86}, {"variant": "A6C C20A A26C G60A U116C U132C", "polymerase ribozyme fitness (log ratio)": -7.63}, {"variant": "A6U G57A", "polymerase ribozyme fitness (log ratio)": -0.751}, {"variant": "A5U C22A", "polymerase ribozyme fitness (log ratio)": -3.71}, {"variant": "A5U C15A", "polymerase ribozyme fitness (log ratio)": -2.36}, {"variant": "A6G C8A U55A C62A", "polymerase ribozyme fitness (log ratio)": -0.384}, {"variant": "A6G C40U G51U", "polymerase ribozyme fitness (log ratio)": -4.1}, {"variant": "A6U C70U A105U U125A", "polymerase ribozyme fitness (log ratio)": -3.91}, {"variant": "A6U A50G C97U C115U", "polymerase ribozyme fitness (log ratio)": -2.3}, {"variant": "A6U C13G G52A A111C U116G A121C", "polymerase ribozyme fitness (log ratio)": -1.83}, {"variant": "A6U C12A A16U G19U G42A G63U G93A U106A G120A U130A", "polymerase ribozyme fitness (log ratio)": -7.49}, {"variant": "A6U C72A A84U U132C", "polymerase ribozyme fitness (log ratio)": -0.139}, {"variant": "A6C G52C", "polymerase ribozyme fitness (log ratio)": -0.394}, {"variant": "A6U C97G", "polymerase ribozyme fitness (log ratio)": -3.24}, {"variant": "A6U C12U A27U", "polymerase ribozyme fitness (log ratio)": -1.6}, {"variant": "A6U G48A", "polymerase ribozyme fitness (log ratio)": -0.413}, {"variant": "A5U A16C", "polymerase ribozyme fitness (log ratio)": -2.72}, {"variant": "A6G C11A U14A C28A G69U U78C", "polymerase ribozyme fitness (log ratio)": -3.37}, {"variant": "A6G A18C U54C", "polymerase ribozyme fitness (log ratio)": -2.19}, {"variant": "A6C C79A", "polymerase ribozyme fitness (log ratio)": -0.901}, {"variant": "A6U G120A", "polymerase ribozyme fitness (log ratio)": 0.678}, {"variant": "A6C U7A C8A A29C U55A C88G C94U", "polymerase ribozyme fitness (log ratio)": -2.74}, {"variant": "A6U G60C G120U", "polymerase ribozyme fitness (log ratio)": 0.248}, {"variant": "A6C G19A A41C C70A", "polymerase ribozyme fitness (log ratio)": -4.25}, {"variant": "A5U C22G A66U U112A U126G", "polymerase ribozyme fitness (log ratio)": -3.51}, {"variant": "A6G G48U G52C", "polymerase ribozyme fitness (log ratio)": -2.21}, {"variant": "A5G G135U", "polymerase ribozyme fitness (log ratio)": -1.22}, {"variant": "A6U C86U C88A A121U", "polymerase ribozyme fitness (log ratio)": 0.522}, {"variant": "A5U C31U G110C", "polymerase ribozyme fitness (log ratio)": -6.73}, {"variant": "A5U C86G", "polymerase ribozyme fitness (log ratio)": -1.26}, {"variant": "A5U C72G G117A", "polymerase ribozyme fitness (log ratio)": -1.96}, {"variant": "A6C A41G C70U G117U", "polymerase ribozyme fitness (log ratio)": -7.14}, {"variant": "A6C A46U C56U", "polymerase ribozyme fitness (log ratio)": -1.22}, {"variant": "A6U C40G A50U", "polymerase ribozyme fitness (log ratio)": -1.66}, {"variant": "A5U G57A", "polymerase ribozyme fitness (log ratio)": -0.568}, {"variant": "A5U C8G G63U", "polymerase ribozyme fitness (log ratio)": -0.752}, {"variant": "A6U G44U C53U G77U G110A", "polymerase ribozyme fitness (log ratio)": -3.2}, {"variant": "A6U U54C", "polymerase ribozyme fitness (log ratio)": 0.558}, {"variant": "A5G G120C", "polymerase ribozyme fitness (log ratio)": 0.0754}, {"variant": "A5U C53A C72U C104U G113C", "polymerase ribozyme fitness (log ratio)": -2.38}, {"variant": "A5U C11G C64U U78C U126C", "polymerase ribozyme fitness (log ratio)": -0.928}, {"variant": "A6G G45C", "polymerase ribozyme fitness (log ratio)": -1.17}, {"variant": "A6U C79G", "polymerase ribozyme fitness (log ratio)": -1.17}, {"variant": "A6U C11U U14G A46C", "polymerase ribozyme fitness (log ratio)": -4.04}, {"variant": "A6U C56U", "polymerase ribozyme fitness (log ratio)": 0.177}, {"variant": "A5G G45A", "polymerase ribozyme fitness (log ratio)": -0.52}, {"variant": "A6U U87C U96G G120A G122C", "polymerase ribozyme fitness (log ratio)": 0.592}, {"variant": "A6G C72G C88U", "polymerase ribozyme fitness (log ratio)": -0.419}, {"variant": "A6U C115G", "polymerase ribozyme fitness (log ratio)": -1.25}, {"variant": "A6G C40U C56U G127C", "polymerase ribozyme fitness (log ratio)": -1.94}, {"variant": "A6C C13A G48C C49G", "polymerase ribozyme fitness (log ratio)": -3.01}, {"variant": "A6C G63U", "polymerase ribozyme fitness (log ratio)": -1.03}, {"variant": "A6U C13G A26U A43U C76A C115G", "polymerase ribozyme fitness (log ratio)": -7.08}, {"variant": "A6U C56U C85A", "polymerase ribozyme fitness (log ratio)": -2.08}, {"variant": "A6C A27G C49U C79A U81A", "polymerase ribozyme fitness (log ratio)": -6.28}, {"variant": "A5U G44U C72A A91C G113C U126G G128A", "polymerase ribozyme fitness (log ratio)": -5.74}, {"variant": "A6U C62U U112G C115A U131C G135C", "polymerase ribozyme fitness (log ratio)": -1.02}, {"variant": "A6U G52A A74U", "polymerase ribozyme fitness (log ratio)": -0.0324}, {"variant": "A6U U106A", "polymerase ribozyme fitness (log ratio)": -0.188}]}]}
